# Source: IntAct's records for PubMed 22484091
# B1: BRO1 domain-containing protein BROX (Homo sapiens), Q5VW32 (parent)
# chain: MTHWFHRNPLKATAPVSFNYYGVVTGPSASKICNDLRSSRARLLELFTDLSCNPEMMKNAADSYFSLLQGFINSLDESTQESKLRYIQNFKWTDTLQGQVPSAQQDAVFELISMGFNVALWYTKYASRLAGKENITEDEAKEVHRSLKIAAGIFKHLKESHLPKLITPAEKGRDLESRLIEAYVIQCQAEAQEVTIARAIELKHAPGLIAALAYETANFYQKADHTLSSLEPAYSAKWRKYLHLKMCFYTAYAYCYHGETLLASDKCGEAIRSLQEAEKLYAKAEALCKEYGETKGPGPTVKPSGHLFFRKLGNLVKNTLEKCQRENGFIYFQKIPTEAPQLELKANYGLVEPIPFEFPPTSVQWTPETLAAFDLTKRPKDDSTKPKPEEEVKPVKEPDIKPQKDTGCYIS
# B2: Charged multivesicular body protein 4b (Homo sapiens), Q9H444 (parent)
# chain: MSVFGKLFGAGGGKAGKGGPTPQEAIQRLRDTEEMLSKKQEFLEKKIEQELTAAKKHGTKNKRAALQALKRKKRYEKQLAQIDGTLSTIEFQREALENANTNTEVLKNMGYAAKAMKAAHDNMDIDKVDELMQDIADQQELAEEISTAISKPVGFGEEFDEDELMAELEELEQEELDKNLLEISGPETVPLPNVPSIALPSKPAKKKEEEDDDMKELENWAGSM
# B3: BRO1 domain-containing protein BROX (Homo sapiens), Q5VW32 (parent)
# chain: B1 chain
# partner: B2 chain
# Variants of: B1
# Conditions: with CHMP5, Q9NZZ3-1
# Sequence of CHMP5, Q9NZZ3-1 (Q9NZZ3 whole entry): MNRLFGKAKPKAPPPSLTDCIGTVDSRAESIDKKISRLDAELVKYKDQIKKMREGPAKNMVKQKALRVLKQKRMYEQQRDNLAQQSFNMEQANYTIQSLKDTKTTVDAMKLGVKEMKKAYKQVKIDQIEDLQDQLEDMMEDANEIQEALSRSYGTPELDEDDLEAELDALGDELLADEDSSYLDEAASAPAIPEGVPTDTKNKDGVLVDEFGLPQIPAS
row,effect of a mutation on the interaction,Variant
1,disrupting interaction strength,MTHWFHRNPLKATAPVSFNYYGVVTGPSASKICNDLRSSRARLLELFTDLSCNPEMMKNAADSYFSLLQGFINSLDESTQESKLRYIQNFKWTDTLQGQVPSAQQDAVFELISMGFNVALWYTKYASRLAGKENITEDEAKEVHRSLKIAAGIFKHLKESHLPKLITPAEKGRDLESRLIEAYVIQCQAEAQEVTIARAIELKHAPGLIAALAYETANFYQKADHTLSSLEPAYSAKWRKYLHLKMCFYTAYAYCYHGETLLASDKCGEAIRSLQEAEKLYAKAEALCKEYGETKGPGPTVKPSGHLFFRKLGNLVKNTLEKCQRENGFIYFQKIPTEAPQLELKANAGLVEPIPFEFPPTSVQWTPETLAAFDLTKRPKDDSTKPKPEEEVKPVKEPDIKPQKDTGCYIS [Y348A]
2,disrupting interaction strength,MTHWFHRNPLKATAPVSFNYYGVVTGPSASKICNDLRSSRARLLELFTDLSCNPEMMKNAADSYFSLLQGFINSLDESTQESKLRYIQNFKWTDTLQGQVPSAQQDAVFELISMGFNVALWYTKYASRLAGKENITEDEAKEVHRSLKIAAGIFKHLKESHLPKLITPAEKGRDLESRLIEAYVIQCQAEAQEVTIARAIELKHAPGDIAADAYETANFYQKADHTLSSLEPAYSAKWRKYLHLKMCFYTAYAYCYHGETLLASDKCGEAIRSLQEAEKLYAKAEALCKEYGETKGPGPTVKPSGHLFFRKLGNLVKNTLEKCQRENGFIYFQKIPTEAPQLELKANYGLVEPIPFEFPPTSVQWTPETLAAFDLTKRPKDDSTKPKPEEEVKPVKEPDIKPQKDTGCYIS [L208D;L212D]
3,disrupting interaction strength,MTHWFHRNPLKATAPVSFNYYGVVTGPSASKICNDLRSSRARLLELFTDLSCNPEMMKNAADSYFSLLQGFINSLDESTQESKLRYIQNFKWTDTLQGQVPSAQQDAVFELISMGFNVALWYTKYASRLAGKENITEDEAKEVHRSLKIAAGIFKHLKESHLPKLITPAEKGRDLESRLIEAYVIQCQAEAQEVTIARAIELKAAPGLIAALAYETANFYQKADHTLSSLEPAYSAKWRKYLHLKMCFYTAYAYCYHGETLLASDKCGEAIRSLQEAEKLYAKAEALCKEYGETKGPGPTVKPSGHLFFRKLGNLVKNTLEKCQRENGFIYFQKIPTEAPQLELKANYGLVEPIPFEFPPTSVQWTPETLAAFDLTKRPKDDSTKPKPEEEVKPVKEPDIKPQKDTGCYIS [H204A]

# Variants of: B2
# Conditions: with brox_human BROX
row,effect of a mutation on the interaction,Variant
1,decreasing interaction strength,MSVFGKLFGAGGGKAGKGGPTPQEAIQRLRDTEEMLSKKQEFLEKKIEQELTAAKKHGTKNKRAALQALKRKKRYEKQLAQIDGTLSTIEFQREALENANTNTEVLKNMGYAAKAMKAAHDNMDIDKVDELMQDIADQQELAEEISTAISKPVGFGEEFDEDELMAELEELEQEELDKNLLEISGPETVPLPNVPSIALPSKPAKKKEEEDDDMKEAENWAGSM [L217A]
2,decreasing interaction strength,MSVFGKLFGAGGGKAGKGGPTPQEAIQRLRDTEEMLSKKQEFLEKKIEQELTAAKKHGTKNKRAALQALKRKKRYEKQLAQIDGTLSTIEFQREALENANTNTEVLKNMGYAAKAMKAAHDNMDIDKVDELMQDIADQQELAEEISTAISKPVGFGEEFDEDELMAELEELEQEELDKNLLEISGPETVPLPNVPSIALPSKPAKKKEEEDDDMKELENAAGSM [W220A]

# Variants of: B3
# Conditions: with chm4b_human CHMP4B
row,effect of a mutation on the interaction,Variant
1,disrupting interaction strength,MTHWFHRNPLKATAPVSFNYYGVVTGPSASKICNDLRSSRARLLELFTDLSCNPEMMKNAADSYFSLLQGFINSLDESTQESKLRYIQNFKWTDTLQGQVPSAQQDAVFELISMGFNVALWYTKYASRLAGKENITEDEAKEVHRSLKIAAGIFKHLKESHLPKLITPAEKGRDLESRLIEAYVIQCQAEAQEVTIARAIELKHAPGDIAADAYETANFYQKADHTLSSLEPAYSAKWRKYLHLKMCFYTAYAYCYHGETLLASDKCGEAIRSLQEAEKLYAKAEALCKEYGETKGPGPTVKPSGHLFFRKLGNLVKNTLEKCQRENGFIYFQKIPTEAPQLELKANYGLVEPIPFEFPPTSVQWTPETLAAFDLTKRPKDDSTKPKPEEEVKPVKEPDIKPQKDTGCYIS [L208D;L212D]
